The text below walks through data of PMC13220886 (Science Advances, 2026).

As usually defined, the Km is the substrate concentration at which the rate is half of its maximum. As usually defined, the Vmax is the top rate of the reaction or transport when substrate is in excess.

B1: CHT1 (endocytosis-resistant CHT1-LV/AA, called WT CHT1) (Homo sapiens; L531A/S263A/V532A) (protein)
chain: MAFHVEGLIAIIVFYLLILLVGIWAAWRTKNSGSAEERSEAIIVGGRDIGLLVGGFTMTATWVGGGYINGTAEAVYVPGYGLAWAQAPIGYSLSLILGGLFFAKPMRSKGYVTMLDPFQQIYGKRMGGLLFIPALMGEMFWAAAIFSALGATISVIIDVDMHISVIISALIATLYTLVGGLYSVAYTDVVQLFCIFVGLWISVPFALSHPAVADIGFTAVHAKYQKPWLGTVDSSEVYSWLDSFLLLMLGGIPWQAYFQRVLASSSATYAQVLSFLAAFGCLVMAIPAILIGAIGASTDWNQTAYGLPDPKTTEEADMILPIVLQYLCPVYISFFGLGAVSAAVMSSADSSILSASSMFARNIYQLSFRQNASDKEIVWVMRITVFVFGASATAMALLTKTVYGLWYLSSDLVYIVIFPQLLCVLFVKGTNTYGAVAGYVSGLFLRITGGEPYLYLQPLIFYPGYYPDDNGIYNQKFPFKTLAMVTSFLTNICISYLAKYLFESGTLPPKLDVFDAVVARHSEENMDKTIAAKNENIKLDELALVKPRQSMTLSSTFTNKEAFLDVDSSPEGSGTEDNLQ
notes: full length; transient transfection, HeLa cells
B2: CHT1 (endocytosis-resistant CHT1-LV/AA, called WT CHT1) (Homo sapiens; L531A/V532A/Y91F) (protein)
chain: B1 chain with Y91F, A263S
notes: as for B1
B3: CHT1 (endocytosis-resistant CHT1-LV/AA, called WT CHT1) (Homo sapiens; L531A/V532A/W141F) (protein)
chain: B1 chain with W141F, A263S
notes: as for B1
B4: CHT1 (endocytosis-resistant CHT1-LV/AA, called WT CHT1) (Homo sapiens; L531A/V532A/W62F) (protein)
chain: B1 chain with W62F, A263S
notes: as for B1
B5: CHT1 (endocytosis-resistant CHT1-LV/AA, called WT CHT1) (Homo sapiens; L531A/V532A) (protein)
chain: B1 chain with A263S
notes: as for B1
B6: CHT1 (endocytosis-resistant CHT1-LV/AA, called WT CHT1) (Homo sapiens; L531A/Q259A/V532A) (protein)
chain: B1 chain with Q259A, A263S
notes: as for B1
B7: CHT1 (endocytosis-resistant CHT1-LV/AA, called WT CHT1) (Homo sapiens; L531A/V532A/W406F) (protein)
chain: B1 chain with A263S, W406F
notes: as for B1

Residue numbers refer to the chain shown, from its start. In names and notes the source's numbering stands.

T1 sequence (A0A1N7IZC0 entry or part of it): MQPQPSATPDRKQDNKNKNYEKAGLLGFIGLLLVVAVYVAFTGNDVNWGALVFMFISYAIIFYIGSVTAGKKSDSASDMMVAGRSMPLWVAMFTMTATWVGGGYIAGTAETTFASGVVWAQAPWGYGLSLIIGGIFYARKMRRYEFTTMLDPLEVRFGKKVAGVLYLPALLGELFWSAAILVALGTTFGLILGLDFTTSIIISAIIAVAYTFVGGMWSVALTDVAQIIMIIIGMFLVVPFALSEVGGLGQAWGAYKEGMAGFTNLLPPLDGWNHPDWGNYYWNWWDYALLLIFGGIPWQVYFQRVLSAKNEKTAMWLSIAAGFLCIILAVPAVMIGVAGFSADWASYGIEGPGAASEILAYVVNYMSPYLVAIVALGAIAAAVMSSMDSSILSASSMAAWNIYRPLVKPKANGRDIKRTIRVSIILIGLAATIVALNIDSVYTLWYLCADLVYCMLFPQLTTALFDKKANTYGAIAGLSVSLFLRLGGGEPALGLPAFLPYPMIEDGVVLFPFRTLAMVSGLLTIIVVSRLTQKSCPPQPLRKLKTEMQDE

One series concerns the target T1, sfCHT (Salimicrobium flavidum, UniProt A0A1N7IZC0).
T1 construct: gene SAMN05421687_10333; full length, C-terminal 3C-His10 tag (cut by 3C for cryo-EM), E. coli BL21; monomer in DDM or E. coli polar lipid proteoliposomes; residues 22-69 and 81-543 built
Kind of series: inhibition of [3H]-choline uptake into proteoliposomes. The format is biochemical. The conditions noted are these: 1 μM HC-3, 1 μM choline, 137 mM NaCl, pH 7.4, room temperature.
With `C[N+]1(C)CCOC(O)(c2ccc(-c3ccc(C4(O)C[N+](C)(C)CCO4)cc3)cc2)C1` (stereo not drawn) [HC-3], the “uptake at 1 μM HC-3” value is recorded as “selectively suppressed Na^+-dependent uptake but had no effect in Na^+-free conditions”.

Substrate in another series: C[N+](C)(C)CCO
Kind of series: [3H]-choline uptake, saturation kinetics in transfected HeLa cells. Type of series: cell-based, Homo sapiens. The conditions noted are these: pH 7.4, 137 mM NaCl, room temperature, 2 min, LV/AA background, labelled compound. An excerpt: [3H]-choline uptake, saturation kinetics in transfected HeLa cells on CHT1 (endocytosis-resistant CHT1-LV/AA, called WT CHT1)
For the molecule B1, the Km was 14.60 ± 2.03 µM and the maximal velocity (Vmax) was found to be 0.000659 µmol/min/mg.
As to B2, the Km was 22.23 ± 1.91 µM and the Vmax was 0.000353 µmol/min/mg.
Regarding B3, the Km was determined as 270.81 ± 14.66 µM and the maximum rate (Vmax) was 0.000588 µmol/min/mg.
For B4, the Michaelis-Menten constant (Km) amounted to 401.72 ± 32.24 µM and the Vmax came to 0.000627 µmol/min/mg.
Take B5: the Km came to 12.17 ± 1.06 µM and the Vmax came to 0.00118 µmol/min/mg.
As for B6, the Michaelis-Menten constant (Km) is 10.08 ± 1.50 µM and the Vmax worked out at 0.000387 µmol/min/mg.
As to B7, the Km came to 357.60 ± 99.13 µM and the Vmax worked out at 0.000543 µmol/min/mg.
